Assays:
Conditions in all cases: both partners purified
OX40-G70A = target: T1, OX40-G70A (human, UniProt P43489, G70A); experiment: BLI; DF004 (10 μg/mL) loaded on protein A sensors; OX40 variants as two-fold serial dilutions in PBS with 1% BSA; association 120 s, dissociation up to 320 s; Octet K2
T1 construct: OX40 (TNFRSF4), human, extracellular domain with G70A; Tag and host are told for recombinant OX40 in general, not for the variants by name; also called G70A variant of human OX40; source: HEK293F, transient expression, purified (told for recombinant human OX40 in general)

[1] = target: T2, human OX40 extracellular domain (recombinant, C-terminal His tag) (Homo sapiens); experiment: as above
T2 construct: OX40 (TNFRSF4, CD134), human, extracellular domain (four cysteine-rich domains CRD1-4); The deposited entries 8AG1 and 7YK4 hold the construct; also called hOX40; TNFRSF4; source: HEK293F, transient expression, purified (HisTrap, Superdex 200 gel filtration)
T2 chain: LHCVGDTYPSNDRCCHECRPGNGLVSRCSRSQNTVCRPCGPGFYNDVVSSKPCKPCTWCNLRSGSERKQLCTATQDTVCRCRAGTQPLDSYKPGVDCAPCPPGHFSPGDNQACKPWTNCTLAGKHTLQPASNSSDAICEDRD

[2] = target: T2, human OX40 extracellular domain …; experiment: ELISA; human OX40 variants coated on a 96-well plate; serially diluted antibody added for 2 h at 37 °C; detected with goat (Fab')2 anti-human IgG Fc (HRP)

B1: DF004 (full antibody, IgG1) (antibody, V domains shown)
VH: QVQLQQSGPGLVKPSQTLSLTCAISGDSVSSNSVSWDWIRQSPSRGLEWLGRTYYRSKWYNEYAVSVESRITINPDTSKNQFSLQLNSVTPEDTAIYFCVRNDYFFDLWGRGTLVTVSS
VL: EIVLTQSPATLSLSPGERATLSCRASQSVGSYLAWYQQKPGQAPRLLIYDASNRATGIPARFSGSGSGTDFTLTISSLEPEDFAVYYCQQRSNWPPGYTFGQGTKLEIK
notes: VH of DF004, as in the heavy chain (VH-CH1) of m3; IgG1 constant region; as the light chain (VL-CL) of m3; IgG1; scFv clone from a yeast display library made from PBMCs of healthy human donors, variable fragments grafted onto IgG1 Fc; source: HEK293F, transient expression, purified from the expression medium (protein A column)
With B1 the “fold decrease of binding affinity against wild-type OX40 (kd value)” value (OX40-G70A) was ~32 fold, the Kd [1] was 4.39 nM and the EC50 [2] was ~0.09 nM.

— publication PMC9496217, “Structural Basis of a Novel Agonistic Anti-OX40 Antibody” (Biomolecules, 2022)
